Results as given in patent US20210147566A1.

Target: human transferrin receptor (TFR) on Raji cells (human) (UniProt P02786)
Test: FACS on Raji cells, secondary antibody without IgG1 clone [CONTINUED]

Chain of human transferrin receptor (TFR) on Raji cells (human) (P02786 whole entry): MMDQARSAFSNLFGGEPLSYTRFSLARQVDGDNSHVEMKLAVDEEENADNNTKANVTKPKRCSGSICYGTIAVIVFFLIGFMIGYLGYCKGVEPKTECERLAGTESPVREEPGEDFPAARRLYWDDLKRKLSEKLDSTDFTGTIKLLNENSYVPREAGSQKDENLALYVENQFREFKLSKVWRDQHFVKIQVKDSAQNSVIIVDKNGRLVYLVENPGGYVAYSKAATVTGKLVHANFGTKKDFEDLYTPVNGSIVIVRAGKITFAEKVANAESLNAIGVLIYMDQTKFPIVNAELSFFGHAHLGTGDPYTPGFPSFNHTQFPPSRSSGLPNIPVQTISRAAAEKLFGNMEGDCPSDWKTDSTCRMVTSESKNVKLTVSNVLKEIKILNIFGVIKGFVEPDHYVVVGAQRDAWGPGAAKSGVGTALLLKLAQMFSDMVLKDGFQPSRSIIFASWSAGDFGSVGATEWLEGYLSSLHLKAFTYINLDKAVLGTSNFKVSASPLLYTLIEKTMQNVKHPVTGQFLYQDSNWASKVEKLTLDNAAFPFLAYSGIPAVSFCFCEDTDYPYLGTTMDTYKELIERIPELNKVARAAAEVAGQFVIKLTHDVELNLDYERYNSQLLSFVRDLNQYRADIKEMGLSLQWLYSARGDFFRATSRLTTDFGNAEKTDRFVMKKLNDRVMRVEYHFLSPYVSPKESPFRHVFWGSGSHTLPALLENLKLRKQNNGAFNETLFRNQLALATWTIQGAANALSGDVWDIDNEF

- TFR gate, percent of cells: 19.1
Substance: ANTI-FAB ALEXA FLUOR 647 (antibody)
